Source: patent publication US20180362668
Where “and” joins values, the source holds several entries; their conditions need not be identical. Identical values can stand only once.

Columns and labels:
[1] = target: T1, VhH-Fc fusion protein chain B with T366S + L368A + Y407V + F405K + E357A; test: non-reducing SDS-PAGE densitometry of Protein A-purified co-transfection product; chain A:chain B vectors 1:4
[2] = target: T1, VhH-Fc fusion protein chain B with …; test: non-reducing SDS-PAGE densitometry of Protein A-purified co-transfection product; chain A:chain B vectors 4:1
[3] = target: Fc protein chain B with D356C + T366S + L368A + Y407V + F405K; test: non-reducing SDS-PAGE densitometry of Protein A-purified co-transfection product; chain A:chain B vectors 1:1
[4] = target: T2, VhH-Fc fusion protein chain B with T366S + L368A + Y407V + K409A + E357A; test: non-reducing SDS-PAGE densitometry of Protein A-purified co-transfection product; chain A:chain B vectors 1:4
[5] = target: T2, VhH-Fc fusion protein chain B with …; test: non-reducing SDS-PAGE densitometry of Protein A-purified co-transfection product; chain A:chain B vectors 4:1
[6] = target: Fc protein chain B with D356C + T366S + L368A + Y407V; test: non-reducing SDS-PAGE of Protein A-purified co-transfection product; chain A:chain B vectors 1:4
[7] = target: Fc protein chain B with D356C + T366S + L368A + Y407V; test: non-reducing SDS-PAGE of Protein A-purified co-transfection product; chain A:chain B vectors 4:1
[8] = target: Fc protein chain B with D356C + T366S + L368A + Y407V; test: non-reducing SDS-PAGE densitometry of Protein A-purified co-transfection product; chain A:chain B vectors 1:1
[9] = target: T3, VhH-Fc fusion protein chain B with D356C + T366S + L368A + Y407V; test: non-reducing SDS-PAGE densitometry of Protein A-purified co-transfection product; chain A:chain B vectors 1:4
[10] = target: T3, VhH-Fc fusion protein chain B with …; test: non-reducing SDS-PAGE densitometry of Protein A-purified co-transfection product; chain A:chain B vectors 4:1
[11] = target: T4, VhH-Fc fusion protein chain B with T366S + L368A + Y407V + K409A + K392D; test: non-reducing SDS-PAGE densitometry of Protein A-purified co-transfection product; chain A:chain B vectors 1:4
[12] = target: T4, VhH-Fc fusion protein chain B with …; test: non-reducing SDS-PAGE densitometry of Protein A-purified co-transfection product; chain A:chain B vectors 4:1
[13] = target: T5, VhH-Fc fusion protein chain B with T366S + L368G + Y407A + K409A; test: non-reducing SDS-PAGE densitometry of Protein A-purified co-transfection product; chain A:chain B vectors 1:4
[14] = target: T5, VhH-Fc fusion protein chain B with …; test: non-reducing SDS-PAGE densitometry of Protein A-purified co-transfection product; chain A:chain B vectors 4:1

B1: ScFv-Fc fusion protein chain A with T366W + K409A + Y349D + S354D (protein)
chain: EVQLLESGGGVVQPGRSLRLSCIASGFTFSSYPMTWVRQAPGKGLEWVASISYDGSYKYKADSMKGRLTISRDNSKNTLYLEMNSLTAEDTAVYYCARTAFFNAYDFWGQGTLVTVSSASTKGPSVGGGGSGGGGSEIVMTQSPATLSVSPGERATLSCRASQSVRSNLAWYQQKPGQAPRLLIYAASTRATGIPARFSGSGSGTEFTLTISSLQSEDFAVYYCQQYNEWFRTSGQGTKVEIKRDKTHTCPPCPAPELLGGPSVFLFPPKPKDTLMISRTPEVTCVVVDVSHENPEVKFNWYVDGVEVHNAKTKPREEQYNSTYRVVSVLTVLHQDWLNGKEYKCKVSNKALPAPIEKTISKAKGQPREPQVDTLPPDRDELTKNQVSLWCLVKGFYPSDIAVEWESNGQPENNYKTTPPVLDSDGSFFLYSALTVDKSRWQQGNVFSCSVMHEALHNHYTQKSLSLSPGK
With B1 as the protein, how does the ScFv-Fc/VhH-Fc heterodimer (%) [1] read?
Its ScFv-Fc/VhH-Fc heterodimer (%) is 64%.

What about the ScFv-Fc/VhH-Fc heterodimer (%) [2] of the same protein?
The ScFv-Fc/VhH-Fc heterodimer (%) was 61%.

B2: ScFv-Fc fusion protein chain A with Y349C + T366W + K409A + L368E (protein)
chain: EVQLLESGGGVVQPGRSLRLSCIASGFTFSSYPMTWVRQAPGKGLEWVASISYDGSYKYKADSMKGRLTISRDNSKNTLYLEMNSLTAEDTAVYYCARTAFFNAYDFWGQGTLVTVSSASTKGPSVGGGGSGGGGSEIVMTQSPATLSVSPGERATLSCRASQSVRSNLAWYQQKPGQAPRLLIYAASTRATGIPARFSGSGSGTEFTLTISSLQSEDFAVYYCQQYNEWFRTSGQGTKVEIKRDKTHTCPPCPAPELLGGPSVFLFPPKPKDTLMISRTPEVTCVVVDVSHENPEVKFNWYVDGVEVHNAKTKPREEQYNSTYRVVSVLTVLHQDWLNGKEYKCKVSNKALPAPIEKTISKAKGQPREPQVCTLPPSRDELTKNQVSLWCEVKGFYPSDIAVEWESNGQPENNYKTTPPVLDSDGSFFLYSALTVDKSRWQQGNVFSCSVMHEALHNHYTQKSLSLSPGK
Which ScFv-Fc/Fc heterodimer (%) [3] does the source give for B2 here?
Its ScFv-Fc/Fc heterodimer (%) is 30%.

B3: ScFv-Fc fusion protein chain A with T366W + F405K + Y349D + S354D (protein)
chain: EVQLLESGGGVVQPGRSLRLSCIASGFTFSSYPMTWVRQAPGKGLEWVASISYDGSYKYKADSMKGRLTISRDNSKNTLYLEMNSLTAEDTAVYYCARTAFFNAYDFWGQGTLVTVSSASTKGPSVGGGGSGGGGSEIVMTQSPATLSVSPGERATLSCRASQSVRSNLAWYQQKPGQAPRLLIYAASTRATGIPARFSGSGSGTEFTLTISSLQSEDFAVYYCQQYNEWFRTSGQGTKVEIKRDKTHTCPPCPAPELLGGPSVFLFPPKPKDTLMISRTPEVTCVVVDVSHENPEVKFNWYVDGVEVHNAKTKPREEQYNSTYRVVSVLTVLHQDWLNGKEYKCKVSNKALPAPIEKTISKAKGQPREPQVDTLPPDRDELTKNQVSLWCLVKGFYPSDIAVEWESNGQPENNYKTTPPVLDSDGSFKLYSKLTVDKSRWQQGNVFSCSVMHEALHNHYTQKSLSLSPGK
How did the ScFv-Fc/VhH-Fc heterodimer (%) [4] turn out when B3 was run?
The ScFv-Fc/VhH-Fc heterodimer (%) was 86%.

And the ScFv-Fc/VhH-Fc heterodimer (%) [5]?
Its ScFv-Fc/VhH-Fc heterodimer (%) is 61%.

B4: ScFv-Fc fusion protein chain A with T366W + K409A + Y349D (protein)
chain: EVQLLESGGGVVQPGRSLRLSCIASGFTFSSYPMTWVRQAPGKGLEWVASISYDGSYKYKADSMKGRLTISRDNSKNTLYLEMNSLTAEDTAVYYCARTAFFNAYDFWGQGTLVTVSSASTKGPSVGGGGSGGGGSEIVMTQSPATLSVSPGERATLSCRASQSVRSNLAWYQQKPGQAPRLLIYAASTRATGIPARFSGSGSGTEFTLTISSLQSEDFAVYYCQQYNEWFRTSGQGTKVEIKRDKTHTCPPCPAPELLGGPSVFLFPPKPKDTLMISRTPEVTCVVVDVSHENPEVKFNWYVDGVEVHNAKTKPREEQYNSTYRVVSVLTVLHQDWLNGKEYKCKVSNKALPAPIEKTISKAKGQPREPQVDTLPPSRDELTKNQVSLWCLVKGFYPSDIAVEWESNGQPENNYKTTPPVLDSDGSFFLYSALTVDKSRWQQGNVFSCSVMHEALHNHYTQKSLSLSPGK
What does the source list for B4?
ScFv-Fc/VhH-Fc heterodimer (%) [1]: 60%; ScFv-Fc/VhH-Fc heterodimer (%) [2]: 49%

B5: ScFv-Fc fusion protein chain A with Y349C + T366W (protein)
chain: EVQLLESGGGVVQPGRSLRLSCIASGFTFSSYPMTWVRQAPGKGLEWVASISYDGSYKYKADSMKGRLTISRDNSKNTLYLEMNSLTAEDTAVYYCARTAFFNAYDFWGQGTLVTVSSASTKGPSVGGGGSGGGGSEIVMTQSPATLSVSPGERATLSCRASQSVRSNLAWYQQKPGQAPRLLIYAASTRATGIPARFSGSGSGTEFTLTISSLQSEDFAVYYCQQYNEWFRTSGQGTKVEIKRDKTHTCPPCPAPELLGGPSVFLFPPKPKDTLMISRTPEVTCVVVDVSHENPEVKFNWYVDGVEVHNAKTKPREEQYNSTYRVVSVLTVLHQDWLNGKEYKCKVSNKALPAPIEKTISKAKGQPREPQVCTLPPSRDELTKNQVSLWCLVKGFYPSDIAVEWESNGQPENNYKTTPPVLDSDGSFFLYSKLTVDKSRWQQGNVFSCSVMHEALHNHYTQKSLSLSPGK
For B5, which ScFv-Fc/Fc heterodimer (%) [6] is on record?
The ScFv-Fc/Fc heterodimer (%) was 44%.

What about the ScFv-Fc/Fc heterodimer (%) [7] of the same protein?
The ScFv-Fc/Fc heterodimer (%) was 42%.

B6: ScFv-Fc fusion protein chain A with Y349C + T366W + F405K (protein)
chain: EVQLLESGGGVVQPGRSLRLSCIASGFTFSSYPMTWVRQAPGKGLEWVASISYDGSYKYKADSMKGRLTISRDNSKNTLYLEMNSLTAEDTAVYYCARTAFFNAYDFWGQGTLVTVSSASTKGPSVGGGGSGGGGSEIVMTQSPATLSVSPGERATLSCRASQSVRSNLAWYQQKPGQAPRLLIYAASTRATGIPARFSGSGSGTEFTLTISSLQSEDFAVYYCQQYNEWFRTSGQGTKVEIKRDKTHTCPPCPAPELLGGPSVFLFPPKPKDTLMISRTPEVTCVVVDVSHENPEVKFNWYVDGVEVHNAKTKPREEQYNSTYRVVSVLTVLHQDWLNGKEYKCKVSNKALPAPIEKTISKAKGQPREPQVCTLPPSRDELTKNQVSLWCLVKGFYPSDIAVEWESNGQPENNYKTTPPVLDSDGSFKLYSKLTVDKSRWQQGNVFSCSVMHEALHNHYTQKSLSLSPGK
How did the ScFv-Fc/Fc heterodimer (%) [6] turn out when B6 was run?
The ScFv-Fc/Fc heterodimer (%) was 49%.

And the ScFv-Fc/Fc heterodimer (%) [7]?
Its ScFv-Fc/Fc heterodimer (%) is 66%.

What about the ScFv-Fc/Fc heterodimer (%) [8] of the same protein?
Its ScFv-Fc/Fc heterodimer (%) is 60% and 70%.

What about the ScFv-Fc/VhH-Fc heterodimer (%) [9] of the same protein?
Its ScFv-Fc/VhH-Fc heterodimer (%) is 39%.

And the ScFv-Fc/VhH-Fc heterodimer (%) [10]?
Its ScFv-Fc/VhH-Fc heterodimer (%) is 55%.

B7: ScFv-Fc fusion protein chain A with T366W + F405K + D399S (protein)
chain: EVQLLESGGGVVQPGRSLRLSCIASGFTFSSYPMTWVRQAPGKGLEWVASISYDGSYKYKADSMKGRLTISRDNSKNTLYLEMNSLTAEDTAVYYCARTAFFNAYDFWGQGTLVTVSSASTKGPSVGGGGSGGGGSEIVMTQSPATLSVSPGERATLSCRASQSVRSNLAWYQQKPGQAPRLLIYAASTRATGIPARFSGSGSGTEFTLTISSLQSEDFAVYYCQQYNEWFRTSGQGTKVEIKRDKTHTCPPCPAPELLGGPSVFLFPPKPKDTLMISRTPEVTCVVVDVSHENPEVKFNWYVDGVEVHNAKTKPREEQYNSTYRVVSVLTVLHQDWLNGKEYKCKVSNKALPAPIEKTISKAKGQPREPQVYTLPPSRDELTKNQVSLWCLVKGFYPSDIAVEWESNGQPENNYKTTPPVLSSDGSFKLYSKLTVDKSRWQQGNVFSCSVMHEALHNHYTQKSLSLSPGK
B7 was tested. Which ScFv-Fc/VhH-Fc heterodimer (%) [11] did it give?
The ScFv-Fc/VhH-Fc heterodimer (%) was 69%.

What about the ScFv-Fc/VhH-Fc heterodimer (%) [12] of the same protein?
The ScFv-Fc/VhH-Fc heterodimer (%) was 66%.

B8: ScFv-Fc fusion protein chain A with T366W + F405K (protein)
chain: EVQLLESGGGVVQPGRSLRLSCIASGFTFSSYPMTWVRQAPGKGLEWVASISYDGSYKYKADSMKGRLTISRDNSKNTLYLEMNSLTAEDTAVYYCARTAFFNAYDFWGQGTLVTVSSASTKGPSVGGGGSGGGGSEIVMTQSPATLSVSPGERATLSCRASQSVRSNLAWYQQKPGQAPRLLIYAASTRATGIPARFSGSGSGTEFTLTISSLQSEDFAVYYCQQYNEWFRTSGQGTKVEIKRDKTHTCPPCPAPELLGGPSVFLFPPKPKDTLMISRTPEVTCVVVDVSHENPEVKFNWYVDGVEVHNAKTKPREEQYNSTYRVVSVLTVLHQDWLNGKEYKCKVSNKALPAPIEKTISKAKGQPREPQVYTLPPSRDELTKNQVSLWCLVKGFYPSDIAVEWESNGQPENNYKTTPPVLDSDGSFKLYSKLTVDKSRWQQGNVFSCSVMHEALHNHYTQKSLSLSPGK
B8 was tested. Which ScFv-Fc/VhH-Fc heterodimer (%) [13] did it give?
The ScFv-Fc/VhH-Fc heterodimer (%) was 93%.

And the ScFv-Fc/VhH-Fc heterodimer (%) [14]?
The ScFv-Fc/VhH-Fc heterodimer (%) was 77%.
